Laboratory results from article PMC9482650, “Quantitative fragmentomics allow affinity mapping of interactomes” (Nature Communications, 2022).

T1: DLG3_1, Q92796
T1 sequence (Q92796 125-227, limits assumed, looked up): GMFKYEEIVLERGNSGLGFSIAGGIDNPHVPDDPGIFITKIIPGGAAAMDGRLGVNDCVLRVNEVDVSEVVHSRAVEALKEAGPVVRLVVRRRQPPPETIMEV

T2: GRIP1_2, Q9Y3R0
T2 sequence (Q9Y3R0 145-248, limits assumed, looked up): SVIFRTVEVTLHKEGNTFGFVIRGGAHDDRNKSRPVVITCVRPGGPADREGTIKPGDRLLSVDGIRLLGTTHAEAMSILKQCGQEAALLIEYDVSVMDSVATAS

T3: SNTB1, Q13884
T3 sequence (Q13884 107-205, limits assumed, looked up): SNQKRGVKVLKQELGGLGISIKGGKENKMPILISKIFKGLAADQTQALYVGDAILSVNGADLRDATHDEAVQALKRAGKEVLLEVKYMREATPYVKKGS

T4: MPP2, Q14168
T4 sequence (Q14168 180-250, limits assumed, looked up): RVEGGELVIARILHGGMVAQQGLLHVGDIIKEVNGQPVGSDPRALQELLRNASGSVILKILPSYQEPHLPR

T5: TX1BP3, O14907
T5 sequence (O14907 10-122, limits assumed, looked up): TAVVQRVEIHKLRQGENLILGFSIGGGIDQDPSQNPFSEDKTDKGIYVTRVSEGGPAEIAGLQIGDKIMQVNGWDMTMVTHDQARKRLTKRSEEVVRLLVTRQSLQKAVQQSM

T6: APBA3_1, O96018
T6 sequence (O96018 389-490, limits assumed, looked up): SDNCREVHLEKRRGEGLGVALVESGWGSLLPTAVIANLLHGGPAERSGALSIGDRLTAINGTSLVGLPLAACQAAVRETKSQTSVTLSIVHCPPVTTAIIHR

T7: MPDZ_5, O75970
T7 sequence (O75970 695-796, limits assumed, looked up): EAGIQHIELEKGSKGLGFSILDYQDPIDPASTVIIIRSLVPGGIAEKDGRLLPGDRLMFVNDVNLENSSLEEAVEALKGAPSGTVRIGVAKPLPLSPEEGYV

T8: DLG3_2, Q92796
T8 sequence (Q92796 221-321, limits assumed, looked up): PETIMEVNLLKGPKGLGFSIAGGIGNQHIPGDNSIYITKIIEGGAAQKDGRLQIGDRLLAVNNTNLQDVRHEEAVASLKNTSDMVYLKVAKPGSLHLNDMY

T9: APBA1_1, Q02410
T9 sequence (Q02410 651-752, limits assumed, looked up): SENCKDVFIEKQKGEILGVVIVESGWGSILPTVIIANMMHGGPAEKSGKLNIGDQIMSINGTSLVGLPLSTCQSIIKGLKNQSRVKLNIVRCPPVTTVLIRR

T10: RADIL, Q96JH8
T10 sequence (Q96JH8 971-1071, limits assumed, looked up): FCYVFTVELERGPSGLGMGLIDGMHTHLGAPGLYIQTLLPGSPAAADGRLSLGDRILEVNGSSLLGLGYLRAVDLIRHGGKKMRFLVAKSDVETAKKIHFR

T11: LNX2_2, Q8N448
T11 sequence (Q8N448 334-432, limits assumed, looked up): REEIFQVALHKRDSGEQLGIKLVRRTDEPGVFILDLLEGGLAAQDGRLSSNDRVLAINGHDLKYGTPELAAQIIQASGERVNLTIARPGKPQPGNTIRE

T12: APBA1_2, Q02410
T12 sequence (Q02410 742-832, limits assumed, looked up): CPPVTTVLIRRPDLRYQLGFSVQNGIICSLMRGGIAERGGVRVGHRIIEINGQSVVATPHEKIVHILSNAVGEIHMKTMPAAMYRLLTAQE


How the values were obtained:
Test in all cases: holdup assay
Parameters in all cases: key: below the threshold = too weak to quantify, mostly under pKd 3.1 to 4
Settings in all cases: plain residues with an end cap or a label only (N-terminal biotin on a linker: ado-ado)
PDZRN4_1, Q6ZMN7 = biological target: PDZRN4_1, Q6ZMN7
DLG3_1, Q92796 = biological target: T1, DLG3_1, Q92796
GRIP1_2, Q9Y3R0 = biological target: T2, GRIP1_2, Q9Y3R0
TJP1_2, Q07157 = biological target: TJP1_2, Q07157
SNTB1, Q13884 = biological target: T3, SNTB1, Q13884
PICK1, Q9NRD5 = biological target: PICK1, Q9NRD5
LAP2, Q96RT1 = biological target: LAP2, Q96RT1
DLG1_2, Q12959 = biological target: DLG1_2, Q12959
MPP2, Q14168 = biological target: T4, MPP2, Q14168
Inadl_10, Q8NI35 = biological target: Inadl_10, Q8NI35
TJP2_1, Q9UDY2 = biological target: TJP2_1, Q9UDY2
MAGI2_4, Q86UL8 = biological target: MAGI2_4, Q86UL8
ARHGEF12, Q9NZN5-2 = biological target: ARHGEF12, Q9NZN5-2
TX1BP3, O14907 = biological target: T5, TX1BP3, O14907
DLG2_2, Q15700 = biological target: DLG2_2, Q15700
APBA3_1, O96018 = biological target: T6, APBA3_1, O96018
MPDZ_5, O75970 = biological target: T7, MPDZ_5, O75970
LNX1_2, Q8TBB1 = biological target: LNX1_2, Q8TBB1
CASK, O14936 = biological target: CASK, O14936
DLG3_2, Q92796 = biological target: T8, DLG3_2, Q92796
APBA1_1, Q02410 = biological target: T9, APBA1_1, Q02410
DLG4_3, P78352 = biological target: DLG4_3, P78352
MAGI3_2, Q5TCQ9 = biological target: MAGI3_2, Q5TCQ9
RADIL, Q96JH8 = biological target: T10, RADIL, Q96JH8
LNX2_2, Q8N448 = biological target: T11, LNX2_2, Q8N448
APBA1_2, Q02410 = biological target: T12, APBA1_2, Q02410

Sequence of PDZRN4_1, Q6ZMN7 (Q6ZMN7 213-318): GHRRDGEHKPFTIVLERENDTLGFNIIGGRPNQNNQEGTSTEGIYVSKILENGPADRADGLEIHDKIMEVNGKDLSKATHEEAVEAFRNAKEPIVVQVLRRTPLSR
Sequence of CASK, O14936 (O14936 487-570): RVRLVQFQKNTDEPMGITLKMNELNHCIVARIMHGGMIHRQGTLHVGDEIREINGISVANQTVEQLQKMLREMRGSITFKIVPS
Sequence of TJP2_1, Q9UDY2 (Q9UDY2 24-128): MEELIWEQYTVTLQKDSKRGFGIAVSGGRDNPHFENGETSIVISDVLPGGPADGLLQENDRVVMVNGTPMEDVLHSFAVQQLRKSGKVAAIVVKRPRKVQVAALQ
Sequence of TJP1_2, Q07157 (Q07157 181-274): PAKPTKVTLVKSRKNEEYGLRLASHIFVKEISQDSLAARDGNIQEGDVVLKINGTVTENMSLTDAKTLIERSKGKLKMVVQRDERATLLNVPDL
Sequence of Inadl_10, Q8NI35 (Q8NI35 1673-1763): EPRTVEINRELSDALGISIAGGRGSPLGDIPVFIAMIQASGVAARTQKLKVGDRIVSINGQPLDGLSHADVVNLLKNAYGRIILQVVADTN
Sequence of DLG4_3, P78352 (P78352 306-403): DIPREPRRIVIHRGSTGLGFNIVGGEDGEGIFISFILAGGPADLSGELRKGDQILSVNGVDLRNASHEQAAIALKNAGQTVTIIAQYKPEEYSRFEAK
Sequence of MAGI2_4, Q86UL8 (Q86UL8 772-865): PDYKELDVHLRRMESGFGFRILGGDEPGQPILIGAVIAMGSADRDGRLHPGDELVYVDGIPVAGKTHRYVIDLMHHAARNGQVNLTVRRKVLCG
Sequence of DLG2_2, Q15700 (Q15700 189-283): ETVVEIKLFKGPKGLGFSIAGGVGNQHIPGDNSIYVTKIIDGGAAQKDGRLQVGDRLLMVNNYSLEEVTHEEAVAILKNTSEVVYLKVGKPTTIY
Sequence of LNX1_2, Q8TBB1 (Q8TBB1 371-470): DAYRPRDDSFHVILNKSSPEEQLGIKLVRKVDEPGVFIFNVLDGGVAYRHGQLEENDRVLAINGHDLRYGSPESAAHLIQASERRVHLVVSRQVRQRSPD
Sequence of DLG1_2, Q12959 (Q12959 314-412): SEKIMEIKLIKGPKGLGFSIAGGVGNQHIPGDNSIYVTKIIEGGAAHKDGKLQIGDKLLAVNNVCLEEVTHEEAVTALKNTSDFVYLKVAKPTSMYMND
Sequence of ARHGEF12, Q9NZN5-2 (Q9NZN5 other isoform, or with tags, fused parts or gaps): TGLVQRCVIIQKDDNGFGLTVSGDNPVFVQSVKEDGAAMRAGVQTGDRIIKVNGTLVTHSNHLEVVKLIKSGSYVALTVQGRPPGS
Sequence of MAGI3_2, Q5TCQ9 (Q5TCQ9 398-503): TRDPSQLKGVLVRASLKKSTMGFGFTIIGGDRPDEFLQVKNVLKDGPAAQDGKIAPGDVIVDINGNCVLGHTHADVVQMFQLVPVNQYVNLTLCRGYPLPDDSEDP
Sequence of PICK1, Q9NRD5 (Q9NRD5 17-115): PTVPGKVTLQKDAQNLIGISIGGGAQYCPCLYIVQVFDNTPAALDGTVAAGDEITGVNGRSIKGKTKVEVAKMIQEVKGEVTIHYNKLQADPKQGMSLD
Sequence of LAP2, Q96RT1 (Q96RT1 other isoform, or with tags, fused parts or gaps): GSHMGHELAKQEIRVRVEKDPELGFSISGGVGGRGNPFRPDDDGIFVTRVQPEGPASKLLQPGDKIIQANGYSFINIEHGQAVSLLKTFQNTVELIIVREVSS

Row | Binder | pKd (PDZRN4_1, Q6ZMN7) | pKd (DLG3_1, Q92796) | pKd (GRIP1_2, Q9Y3R0) | pKd (TJP1_2, Q07157) | pKd (SNTB1, Q13884) | pKd (PICK1, Q9NRD5) | pKd (LAP2, Q96RT1) | pKd (DLG1_2, Q12959) | pKd (MPP2, Q14168) | pKd (Inadl_10, Q8NI35) | pKd (TJP2_1, Q9UDY2) | pKd (MAGI2_4, Q86UL8) | pKd (ARHGEF12, Q9NZN5-2) | pKd (TX1BP3, O14907) | pKd (DLG2_2, Q15700) | pKd (APBA3_1, O96018) | pKd (MPDZ_5, O75970) | pKd (LNX1_2, Q8TBB1) | pKd (CASK, O14936) | pKd (DLG3_2, Q92796) | other results
1 | HDDYFYHDEL [RCN2, Q14257] | below the threshold | below the threshold | below the threshold | below the threshold | below the threshold | below the threshold | below the threshold | below the threshold | below the threshold | below the threshold | below the threshold | below the threshold | below the threshold | 3.9 | below the threshold | below the threshold | below the threshold | below the threshold | below the threshold | below the threshold | pKd (APBA1_1, Q02410): below the threshold; pKd (DLG4_3, P78352): 3.53; pKd (MAGI3_2, Q5TCQ9): below the threshold; pKd (RADIL, Q96JH8): 3.5; pKd (LNX2_2, Q8N448): below the threshold; pKd (APBA1_2, Q02410): 3.98
2 | KAEEKPPSKV [SCN4B, Q8IWT1] | below the threshold | below the threshold | below the threshold | below the threshold | below the threshold | 4.21 | 3.89 | 3.52 | below the threshold | below the threshold | below the threshold | below the threshold | below the threshold | below the threshold | below the threshold | below the threshold | below the threshold | below the threshold | below the threshold | below the threshold | pKd (APBA1_1, Q02410): below the threshold; pKd (DLG4_3, P78352): below the threshold; pKd (MAGI3_2, Q5TCQ9): below the threshold; pKd (RADIL, Q96JH8): below the threshold; pKd (LNX2_2, Q8N448): below the threshold; pKd (APBA1_2, Q02410): 3.85
3 | QKNKDREYYV [NRXN3, Q9HDB5] | below the threshold | below the threshold | below the threshold | 3.57 | 3.65 | below the threshold | below the threshold | below the threshold | 4.39 | below the threshold | 3.52 | 3.8 | 3.65 | below the threshold | below the threshold | below the threshold | 4.71 | 4.08 | 3.55 | 3.65 | pKd (APBA1_1, Q02410): below the threshold; pKd (DLG4_3, P78352): below the threshold; pKd (MAGI3_2, Q5TCQ9): 4.75; pKd (RADIL, Q96JH8): 4.7; pKd (LNX2_2, Q8N448): 4.81; pKd (APBA1_2, Q02410): 3.99
4 | PSDSVGKDVF [EGLN1, Q9GZT9] | below the threshold | below the threshold | below the threshold | below the threshold | below the threshold | below the threshold | below the threshold | below the threshold | below the threshold | below the threshold | below the threshold | below the threshold | below the threshold | below the threshold | below the threshold | below the threshold | below the threshold | below the threshold | below the threshold | 4.07 | pKd (APBA1_1, Q02410): below the threshold; pKd (DLG4_3, P78352): below the threshold; pKd (MAGI3_2, Q5TCQ9): below the threshold; pKd (RADIL, Q96JH8): below the threshold; pKd (LNX2_2, Q8N448): below the threshold; pKd (APBA1_2, Q02410): below the threshold
5 | THREVKFTSL [CD46, P15529] | 4.57 | below the threshold | below the threshold | below the threshold | 4.86 | 4.08 | below the threshold | 3.88 | below the threshold | 3.49 | 3.73 | below the threshold | 5.37 | 4.37 | 3.57 | below the threshold | below the threshold | below the threshold | below the threshold | 4.23 | pKd (APBA1_1, Q02410): below the threshold; pKd (DLG4_3, P78352): 4.3; pKd (MAGI3_2, Q5TCQ9): below the threshold; pKd (RADIL, Q96JH8): 3.49; pKd (LNX2_2, Q8N448): below the threshold; pKd (APBA1_2, Q02410): 3.64
